Measured values reported in US20080032340A1 (UNIVERSITY OF ARIZONA, published 2008).
Bridges are numbered along the chain shown (N, C = ends). Where no end group is shown, it is not given here.

Tests used:
streptavidin = target: T1, streptavidin (UniProt P22629 37-163, limits assumed); assay: HABA competition, 50 µM HABA-streptavidin complex, absorbance at 500 nm
T1 construct: Bought from Pierce; Used free in solution in the HABA assay and immobilized on agarose resin in the fusion protein experiments; also called agarose immobilized streptavidin
Experimental: (§1) FIG. 1: Competitive ligand binding analysis of […] Error bars indicate the standard deviation of three separate assays.
After 60 minutes, the absorbance of the complex was monitored at 500 nm. To calculate the IC₅₀s of the selected peptides, the average of three separate trials were fitted to the Hill equation, […]

NeutrAvidin [1] = target: T2, NeutrAvidin (UniProt P02701 25-152, chemically deglycosylated and chemically modified to a more neutral isoelectric point (pI=6.3)); assay: HABA competition, 50 µM HABA-NeutrAvidin complex, absorbance at 500 nm, IC50 converted by Cheng-Prusoff
T2 construct: Bought from Pierce; also called NA; deglycosylated avidin
Experimental: (§2) After 60 minutes, the absorbance of the complex was monitored at 500 nm. To calculate the IC₅₀s of the selected peptides, the average of three separate trials were fitted to the Hill equation,
(§3) Best fit equations were calculated using KaleidaGraph (Synergy Software).

avidin = target: T3, avidin (hen egg white (chicken), UniProt P02701 25-152, glycosylated native state); assay: HABA competition, 50 µM HABA-avidin complex, absorbance at 500 nm, IC50 converted by Cheng-Prusoff
T3 construct: Bought from Pierce; also called glycosylated parent of NeutrAvidin
Experimental: as §2, §3

NeutrAvidin [2] = target: T2, NeutrAvidin; assay: HABA competition, uncyclized peptides (the filing cites 'FIG. 3B'; FIG. 1B holds these curves)
Experimental: as §1, §2, §3

Binder | Kd (streptavidin) [µM] | Kd (NeutrAvidin [1]) [µM] | Kd (avidin) [µM] | Kd (NeutrAvidin [2]) [µM]
CDRASPYCG-NH2 (disulfide 1-8; N-terminus assumed; SMILES C[C@@H]1NC(=O)[C@H](CCCNC(=N)N)NC(=O)[C@H](CC(=O)O)NC(=O)[C@@H](N)CSSC[C@@H](C(=O)NCC(N)=O)NC(=O)[C@H](Cc2ccc(O)cc2)NC(=O)[C@@H]2CCCN2C(=O)[C@H](CO)NC1=O, Synthetic peptide from Fmoc synthesis on RinkAmide resin, oxidised in PBS with 10% DMSO; also called cyclic DRASPY peptide) [cyclized CDRASPYCG (SEQ ID NO: 7)] | > 5000 | 31.5 | 44.9 | –
CDRATPYCG-NH2 (disulfide 1-8; N-terminus assumed; SMILES C[C@@H]1NC(=O)[C@H](CCCNC(=N)N)NC(=O)[C@H](CC(=O)O)NC(=O)[C@@H](N)CSSC[C@@H](C(=O)NCC(N)=O)NC(=O)[C@H](Cc2ccc(O)cc2)NC(=O)[C@@H]2CCCN2C(=O)[C@H]([C@@H](C)O)NC1=O, Synthetic peptide from Fmoc synthesis on RinkAmide resin, oxidised in PBS with 10% DMSO; also called cyclic DRATPY peptide) [cyclized CDRATPYCG (SEQ ID NO: 9)] | > 5000 | 12.5 | 28.1 | –
CDRATPYCG-NH2 (cysteine pairing not given here, Same peptide as m2, used as the linear form; also called linear DRATPY peptide; acyclic counterpart) [uncyclized CDRATPYCG (SEQ ID NO: 9)] | – | – | – | < 500
CDRASPYCG-NH2 (cysteine pairing not given here, Same peptide as m1, used as the linear form; also called linear DRASPY peptide; acyclic counterpart) [uncyclized CDRASPYCG (SEQ ID NO: 7)] | – | – | – | < 500
CDLASPWCG-NH2 (disulfide 1-8; N-terminus assumed; SMILES CC(C)C[C@@H]1NC(=O)[C@H](CC(=O)O)NC(=O)[C@@H](N)CSSC[C@@H](C(=O)NCC(N)=O)NC(=O)[C@H](Cc2c[nH]c3ccccc23)NC(=O)[C@@H]2CCCN2C(=O)[C@H](CO)NC(=O)[C@H](C)NC1=O, Synthetic peptide from Fmoc synthesis on RinkAmide resin, oxidised in PBS with 10% DMSO; also called cyclic DLASPW peptide) [cyclized CDLASPWCG (SEQ ID NO: 5)] | > 5000 | 62.8 | 46.2 | –
